One substance from article PMC5131300, “Discovery and structural characterisation of new fold type IV-transaminases exemplify the diversity of this enzyme fold” (Scientific Reports, 2016) can be followed below.

In the experiment the target is CpuTA1, fold type IV transaminase from Curtobacterium pusillum (Curtobacterium pusillum). Kind of experiment: crystal structure; CpuTA1 12 mg/mL with 5 mM PLP, co-crystallised with 10 mM 3-amino benzoic acid, 2.4 M sodium malonate pH 7.0, micro-seeding, 289 K; two chains in the asymmetric unit; interface analysed with PDBePISA.

What is called stoichiometry N is the number of molecules, sites or subunits per partner or assembly.

Substance “CpuTA1, fold type IV transaminase from Curtobacterium pusillum (enzyme)” returned a stoichiometry N of 2.
